Data on one molecule can be found in patent publication US20170209564A1.

Conditions in all cases: remark: other sources report otherwise
For one test, the target named is 91C4. In words: ELISA, coated CR6261, HEK293F medium. In general terms: An ELISA detects its analyte on a solid surface through an enzyme-linked reagent.
For the next test, the target named is 71H2. Nature of the test: ELISA, coated CR6261, HEK293F medium.
The target in the next test is 86B4. In words: ELISA, coated CR6261, HEK293F medium.
The next test addresses 74H9. Nature of the test: ELISA, coated CR6261, HEK293F medium.
For the next test, the target named is 127H1. Nature of the test: ELISA, coated CR6261, HEK293F medium.
For another test, the target named is 131B5. Nature of the test: ELISA, coated CR6261, HEK293F medium.
A further test has as its target 113E7. Nature of the test: ELISA, coated CR6261, HEK293F medium.
The target in a further test is 7A7. Nature of the test: ELISA, coated CR6261, HEK293F medium.
Another test deals with 6E12. Nature of the test: ELISA, coated CR6261, HEK293F medium.
The target of the next test is 171E5. Nature of the test: ELISA, coated CR6261, HEK293F medium.
The next test has as its target 181H9. Nature of the test: ELISA, coated CR6261, HEK293F medium.
A further test addresses 220C9. Nature of the test: ELISA, coated CR6261, HEK293F medium.
For the next test, the target named is 115A1. Nature of the test: ELISA, coated CR6261, HEK293F medium.
Another test has as its target 71C4. In words: ELISA, coated CR6261, HEK293F medium.
The target of test [1] is H1-mini2-cluster1+5+6-GCN4 without leader sequence and with FLAG-thrombin-foldon-HIS. Nature of the test: ELISA signal over HTRF expression signal, P. pastoris; average of the parental.
The target in a further test is 1F2. Nature of the test: ELISA signal over HTRF expression signal, P. pastoris.
For the next test, the target named is 75G5. Described as above.
The next test has as its target 58A5. The description is as above.
A further test has as its target 11F4. The test is described as above.

B1: CR6261 (antibody, V domains shown)
VH: EVQLVESGAEVKKPGSSVKVSCKASGGPFRSYAISWVRQAPGQGPEWMGGIIPIFGTTKYAPKFQGRVTITADDFAGTVYMELSSLRSEDTAMYYCAKHMGYQVRETMDVWGKGTTVTVSS
VL: QSVLTQPPSVSAAPGQKVTISCSGSSSNIGNDYVSWYQQLPGTAPKLLIYDNNKRPSGIPDRFSGSKSGTSATLGITGLQTGDEANYYCATWDRRPTAYVVFGGGTKLTVLG
Consider B1, for which the CR6261 binding signal was 8.44e+06 with 91C4; 2.11e+07 with 71H2; 2e+07 with 86B4; 2.61e+07 with 74H9; 2.42e+07 with 127H1; 5.73e+06 in the test with 131B5. The CR6261 binding signal with 113E7 turned out to be 1.3e+07; with 7A7, 6.19e+06; in the test with 6E12, 1.53e+07; with 171E5, 6.63e+06; in the test with 181H9, 1.19e+07; with 220C9 it was 8.49e+06. For the same molecule, the CR6261 binding signal was determined as 9.56e+06 in the test with 115A1 and 6.41e+06 with 71C4. The ratio (binding signal/HTRF signal) was determined as 5.94 in test [1]; 12.1 in the test with 1F2; 37.9 with 75G5; 21.9 with 58A5; 15.1 in the test with 11F4. The fold increase of ratio over parental SEQ ID NO: 6 with 1F2 was determined as 2.04; with 75G5, 6.38; with 58A5, 3.69; with 11F4 it was 2.54.
